In assay [1] the target is binding partner of C5A (XPA23). Briefly: Biacore.
Assay [2] deals with binding partner of C5A (XPA23). Briefly: Biacore, K-off.

B1: C5A (XPA23) VH T58D (antibody, V domains shown)
VH: EVQLLESGGGLVQPGGSLRLSCAASGFTFSKYFMFWVRQAPGKGLEWVSVISPSGGMDRYADSVKGRFTISRDNSKNTLYLQMNSLRAEDTAVYYCARVGYGGNSDYWGQGTLVTVSS
VL: DIQMTQSPSSVSASVGDRLTIICRASQDINRWLAWYQQTPGNAPKLLIHSATSLQSGVPSRFSGSGSGTDFTLTINSLQPEDFATYYCQQADSFPLTFGGGTKVEIK
B1: the fold affinity vs original in assay [1] turned out to be 0.12 fold. Further, in assay [2], the fold difference in affinity vs original was 0.12 fold.

B2: C5A (XPA23) VH R59T (antibody, V domains shown)
VH: EVQLLESGGGLVQPGGSLRLSCAASGFTFSKYFMFWVRQAPGKGLEWVSVISPSGGMTTYADSVKGRFTISRDNSKNTLYLQMNSLRAEDTAVYYCARVGYGGNSDYWGQGTLVTVSS
VL: DIQMTQSPSSVSASVGDRLTIICRASQDINRWLAWYQQTPGNAPKLLIHSATSLQSGVPSRFSGSGSGTDFTLTINSLQPEDFATYYCQQADSFPLTFGGGTKVEIK
Turning to B2, the fold difference in affinity vs original in assay [1] and in assay [2] was 0.76 fold in each case.

B3: C5A (XPA23) VH G100H (antibody, V domains shown)
VH: EVQLLESGGGLVQPGGSLRLSCAASGFTFSKYFMFWVRQAPGKGLEWVSVISPSGGMTRYADSVKGRFTISRDNSKNTLYLQMNSLRAEDTAVYYCARVHYGGNSDYWGQGTLVTVSS
VL: DIQMTQSPSSVSASVGDRLTIICRASQDINRWLAWYQQTPGNAPKLLIHSATSLQSGVPSRFSGSGSGTDFTLTINSLQPEDFATYYCQQADSFPLTFGGGTKVEIK
Regarding B3, the fold affinity vs original in assay [1] amounted to 0.06 fold. For the same molecule, in assay [2], the fold difference in affinity vs original was found to be 0.06 fold.

B4: C5A (XPA23) VH T58S (antibody, V domains shown)
VH: EVQLLESGGGLVQPGGSLRLSCAASGFTFSKYFMFWVRQAPGKGLEWVSVISPSGGMSRYADSVKGRFTISRDNSKNTLYLQMNSLRAEDTAVYYCARVGYGGNSDYWGQGTLVTVSS
VL: DIQMTQSPSSVSASVGDRLTIICRASQDINRWLAWYQQTPGNAPKLLIHSATSLQSGVPSRFSGSGSGTDFTLTINSLQPEDFATYYCQQADSFPLTFGGGTKVEIK
In the case of B4, in assay [1], the fold affinity vs original came out at 0.82 fold. Also, the fold difference in affinity vs original in assay [2] worked out at 0.82 fold.

B5: C5A (XPA23) VH G100S (antibody, V domains shown)
VH: EVQLLESGGGLVQPGGSLRLSCAASGFTFSKYFMFWVRQAPGKGLEWVSVISPSGGMTRYADSVKGRFTISRDNSKNTLYLQMNSLRAEDTAVYYCARVSYGGNSDYWGQGTLVTVSS
VL: DIQMTQSPSSVSASVGDRLTIICRASQDINRWLAWYQQTPGNAPKLLIHSATSLQSGVPSRFSGSGSGTDFTLTINSLQPEDFATYYCQQADSFPLTFGGGTKVEIK
As for B5, in assay [1], the fold affinity vs original is 2.8 fold. For the same molecule, the fold difference in affinity vs original in assay [2] stood at 2.8 fold.

B6: C5A (XPA23) VH G100Y (antibody, V domains shown)
VH: EVQLLESGGGLVQPGGSLRLSCAASGFTFSKYFMFWVRQAPGKGLEWVSVISPSGGMTRYADSVKGRFTISRDNSKNTLYLQMNSLRAEDTAVYYCARVYYGGNSDYWGQGTLVTVSS
VL: DIQMTQSPSSVSASVGDRLTIICRASQDINRWLAWYQQTPGNAPKLLIHSATSLQSGVPSRFSGSGSGTDFTLTINSLQPEDFATYYCQQADSFPLTFGGGTKVEIK
As to B6, the fold affinity vs original in assay [1] stood at 0.09 fold. In addition, in assay [2], the fold difference in affinity vs original worked out at 0.09 fold.

B7: C5A (XPA23) VH R59N (antibody, V domains shown)
VH: EVQLLESGGGLVQPGGSLRLSCAASGFTFSKYFMFWVRQAPGKGLEWVSVISPSGGMTNYADSVKGRFTISRDNSKNTLYLQMNSLRAEDTAVYYCARVGYGGNSDYWGQGTLVTVSS
VL: DIQMTQSPSSVSASVGDRLTIICRASQDINRWLAWYQQTPGNAPKLLIHSATSLQSGVPSRFSGSGSGTDFTLTINSLQPEDFATYYCQQADSFPLTFGGGTKVEIK
For the molecule B7, in assay [1], the fold affinity vs original was 0.86 fold. In addition, the fold difference in affinity vs original in assay [2] came out at 0.86 fold.

B8: C5A (XPA23) VH R59K (antibody, V domains shown)
VH: EVQLLESGGGLVQPGGSLRLSCAASGFTFSKYFMFWVRQAPGKGLEWVSVISPSGGMTKYADSVKGRFTISRDNSKNTLYLQMNSLRAEDTAVYYCARVGYGGNSDYWGQGTLVTVSS
VL: DIQMTQSPSSVSASVGDRLTIICRASQDINRWLAWYQQTPGNAPKLLIHSATSLQSGVPSRFSGSGSGTDFTLTINSLQPEDFATYYCQQADSFPLTFGGGTKVEIK
For the molecule B8, in assay [1], the fold affinity vs original was 0.94 fold. Besides, in assay [2], the fold difference in affinity vs original turned out to be 0.94 fold.

B9: C5A (XPA23) VH R59S (antibody, V domains shown)
VH: EVQLLESGGGLVQPGGSLRLSCAASGFTFSKYFMFWVRQAPGKGLEWVSVISPSGGMTSYADSVKGRFTISRDNSKNTLYLQMNSLRAEDTAVYYCARVGYGGNSDYWGQGTLVTVSS
VL: DIQMTQSPSSVSASVGDRLTIICRASQDINRWLAWYQQTPGNAPKLLIHSATSLQSGVPSRFSGSGSGTDFTLTINSLQPEDFATYYCQQADSFPLTFGGGTKVEIK
Turning to B9, the fold affinity vs original in assay [1] is 0.13 fold. In assay [2], the fold difference in affinity vs original amounted to 0.13 fold.

B10: C5A (XPA23) VH Y101E (antibody, V domains shown)
VH: EVQLLESGGGLVQPGGSLRLSCAASGFTFSKYFMFWVRQAPGKGLEWVSVISPSGGMTRYADSVKGRFTISRDNSKNTLYLQMNSLRAEDTAVYYCARVGEGGNSDYWGQGTLVTVSS
VL: DIQMTQSPSSVSASVGDRLTIICRASQDINRWLAWYQQTPGNAPKLLIHSATSLQSGVPSRFSGSGSGTDFTLTINSLQPEDFATYYCQQADSFPLTFGGGTKVEIK
With B10, the fold affinity vs original in assay [1] was 0.03 fold. The fold difference in affinity vs original in assay [2] amounted to 0.03 fold.

B11: C5A (XPA23) VH T58H (antibody, V domains shown)
VH: EVQLLESGGGLVQPGGSLRLSCAASGFTFSKYFMFWVRQAPGKGLEWVSVISPSGGMHRYADSVKGRFTISRDNSKNTLYLQMNSLRAEDTAVYYCARVGYGGNSDYWGQGTLVTVSS
VL: DIQMTQSPSSVSASVGDRLTIICRASQDINRWLAWYQQTPGNAPKLLIHSATSLQSGVPSRFSGSGSGTDFTLTINSLQPEDFATYYCQQADSFPLTFGGGTKVEIK
As for B11, in assay [1], the fold affinity vs original worked out at 0.98 fold. The fold difference in affinity vs original in assay [2] was 0.98 fold.

B12: C5A (XPA23) VH R59Q (antibody, V domains shown)
VH: EVQLLESGGGLVQPGGSLRLSCAASGFTFSKYFMFWVRQAPGKGLEWVSVISPSGGMTQYADSVKGRFTISRDNSKNTLYLQMNSLRAEDTAVYYCARVGYGGNSDYWGQGTLVTVSS
VL: DIQMTQSPSSVSASVGDRLTIICRASQDINRWLAWYQQTPGNAPKLLIHSATSLQSGVPSRFSGSGSGTDFTLTINSLQPEDFATYYCQQADSFPLTFGGGTKVEIK
Turning to B12, in assay [1], the fold affinity vs original came to 0.86 fold. The fold difference in affinity vs original in assay [2] was determined as 0.86 fold.

B13: C5A (XPA23) VH T58N (antibody, V domains shown)
VH: EVQLLESGGGLVQPGGSLRLSCAASGFTFSKYFMFWVRQAPGKGLEWVSVISPSGGMNRYADSVKGRFTISRDNSKNTLYLQMNSLRAEDTAVYYCARVGYGGNSDYWGQGTLVTVSS
VL: DIQMTQSPSSVSASVGDRLTIICRASQDINRWLAWYQQTPGNAPKLLIHSATSLQSGVPSRFSGSGSGTDFTLTINSLQPEDFATYYCQQADSFPLTFGGGTKVEIK
Take B13: in assay [1], the fold affinity vs original turned out to be 0.9 fold. Further, in assay [2], the fold difference in affinity vs original came out at 0.9 fold.

B14: C5A (XPA23) VH Y101R (antibody, V domains shown)
VH: EVQLLESGGGLVQPGGSLRLSCAASGFTFSKYFMFWVRQAPGKGLEWVSVISPSGGMTRYADSVKGRFTISRDNSKNTLYLQMNSLRAEDTAVYYCARVGRGGNSDYWGQGTLVTVSS
VL: DIQMTQSPSSVSASVGDRLTIICRASQDINRWLAWYQQTPGNAPKLLIHSATSLQSGVPSRFSGSGSGTDFTLTINSLQPEDFATYYCQQADSFPLTFGGGTKVEIK
As for B14, the fold affinity vs original in assay [1] is 0.85 fold. In assay [2], the fold difference in affinity vs original was found to be 0.85 fold.

B15: C5A (XPA23) VH G100T (antibody, V domains shown)
VH: EVQLLESGGGLVQPGGSLRLSCAASGFTFSKYFMFWVRQAPGKGLEWVSVISPSGGMTRYADSVKGRFTISRDNSKNTLYLQMNSLRAEDTAVYYCARVTYGGNSDYWGQGTLVTVSS
VL: DIQMTQSPSSVSASVGDRLTIICRASQDINRWLAWYQQTPGNAPKLLIHSATSLQSGVPSRFSGSGSGTDFTLTINSLQPEDFATYYCQQADSFPLTFGGGTKVEIK
Regarding B15, the fold difference in affinity vs original in assay [1] and in assay [2] was 0.12 fold in each case.

B16: C5A (XPA23) VH T58R (antibody, V domains shown)
VH: EVQLLESGGGLVQPGGSLRLSCAASGFTFSKYFMFWVRQAPGKGLEWVSVISPSGGMRRYADSVKGRFTISRDNSKNTLYLQMNSLRAEDTAVYYCARVGYGGNSDYWGQGTLVTVSS
VL: DIQMTQSPSSVSASVGDRLTIICRASQDINRWLAWYQQTPGNAPKLLIHSATSLQSGVPSRFSGSGSGTDFTLTINSLQPEDFATYYCQQADSFPLTFGGGTKVEIK
For B16, in assay [1], the fold affinity vs original is 1.14 fold. The fold difference in affinity vs original in assay [2] was 1.14 fold.

B17: C5A (XPA23) VH V99T (antibody, V domains shown)
VH: EVQLLESGGGLVQPGGSLRLSCAASGFTFSKYFMFWVRQAPGKGLEWVSVISPSGGMTRYADSVKGRFTISRDNSKNTLYLQMNSLRAEDTAVYYCARTGYGGNSDYWGQGTLVTVSS
VL: DIQMTQSPSSVSASVGDRLTIICRASQDINRWLAWYQQTPGNAPKLLIHSATSLQSGVPSRFSGSGSGTDFTLTINSLQPEDFATYYCQQADSFPLTFGGGTKVEIK
Take B17: the fold difference in affinity vs original in assay [1] and in assay [2] was 0.1 fold in each case.

B18: C5A (XPA23) VH Y101H (antibody, V domains shown)
VH: EVQLLESGGGLVQPGGSLRLSCAASGFTFSKYFMFWVRQAPGKGLEWVSVISPSGGMTRYADSVKGRFTISRDNSKNTLYLQMNSLRAEDTAVYYCARVGHGGNSDYWGQGTLVTVSS
VL: DIQMTQSPSSVSASVGDRLTIICRASQDINRWLAWYQQTPGNAPKLLIHSATSLQSGVPSRFSGSGSGTDFTLTINSLQPEDFATYYCQQADSFPLTFGGGTKVEIK
Regarding B18, in assay [1], the fold affinity vs original stood at 0.04 fold. The fold difference in affinity vs original in assay [2] is 0.04 fold.

B19: C5A (XPA23) VH T58Y (antibody, V domains shown)
VH: EVQLLESGGGLVQPGGSLRLSCAASGFTFSKYFMFWVRQAPGKGLEWVSVISPSGGMYRYADSVKGRFTISRDNSKNTLYLQMNSLRAEDTAVYYCARVGYGGNSDYWGQGTLVTVSS
VL: DIQMTQSPSSVSASVGDRLTIICRASQDINRWLAWYQQTPGNAPKLLIHSATSLQSGVPSRFSGSGSGTDFTLTINSLQPEDFATYYCQQADSFPLTFGGGTKVEIK
Turning to B19, the fold affinity vs original in assay [1] is 1.01 fold. In addition, the fold difference in affinity vs original in assay [2] was found to be 1.01 fold.

These data come from patent US20110118447A1.
